{"source": "paper PMC7350259", "key": {"[1]": {"molecular_target": "human rhinovirus strain RV89 (purified virus) (human rhinovirus 89 (RV-A, major group))", "experiment": "ELISA; fluid phase competition: RV89 (25 µg/mL) or RV2 (2 µg/mL in the methods, 5 µg/mL in the results) pre-incubated with soluble receptor (50 µg/mL) overnight at 4 °C, then added to plate-bound receptor"}, "[2]": {"molecular_target": "human rhinovirus strain RV2 (purified virus) (human rhinovirus 2 (RV-A, minor group))", "experiment": "ELISA; fluid phase competition: RV89 (25 µg/mL) or RV2 (2 µg/mL in the methods, 5 µg/mL in the results) pre-incubated with soluble receptor (50 µg/mL) overnight at 4 °C, then added to plate-bound receptor"}}, "data": [{"substance": "recombinant human ICAM-1/CD54 (intercellular adhesion molecule 1) (from UniProt P05362 28-480) (receptor)", "values": [{"measurement": "percent inhibition of RV89 binding to plate-bound ICAM-1 (50 µg/mL ICAM-1, 25 µg/mL RV89)", "setting": "[1]", "value": "> 95", "unit": "%"}]}, {"substance": "recombinant human low density lipoprotein receptor (LDLR) (from UniProt P01130 22-788)", "values": [{"measurement": "percent inhibition of RV2 binding to plate-bound LDLR (50 µg/mL LDLR)", "setting": "[2]", "value": "> 60", "unit": "%"}]}]}
